One test has as its target human IL-17A (human) (UniProt Q16552). As to the kind of experiment: cell-based or functional assay.
For a further test, the target named is human TNF-α (human) (UniProt P01375). The test can be described thus: cell-based or functional assay.
Sequence of UniProt P01375 (P01375 77-233 limits assumed): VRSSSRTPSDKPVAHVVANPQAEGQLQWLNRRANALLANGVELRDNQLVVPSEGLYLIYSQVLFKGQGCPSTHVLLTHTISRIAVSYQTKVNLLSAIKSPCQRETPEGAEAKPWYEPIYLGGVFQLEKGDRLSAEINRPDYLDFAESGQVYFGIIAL

Sequence of UniProt Q16552 (Q16552 24-155 limits assumed): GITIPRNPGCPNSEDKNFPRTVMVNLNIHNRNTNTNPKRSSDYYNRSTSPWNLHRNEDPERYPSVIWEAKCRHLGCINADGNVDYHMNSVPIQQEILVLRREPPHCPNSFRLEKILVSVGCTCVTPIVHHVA

In the test with human IL-17A (human), LY3114062 (bispecific antibody) returned an IC50, hIL-6 secretion of commercial RA-FLS cells stimulated with IL-17A and TNF-α (co-neutralization) of 0.0149 nM; an IC50, hIL-6 secretion of commercial RA-FLS cells stimulated with hIL-17A of 0.371 nM. Moreover, in the test with human TNF-α (human), the IC50, hIL-6 secretion of commercial RA-FLS cells stimulated with IL-17A and TNF-α (co-neutralization) amounted to 0.0149 nM; the IC50, hIL-6 secretion of commercial RA-FLS cells stimulated with hTNF-α was 0.0186 nM.

Values taken from patent US20220098297A1.
